Measured values: patent publication US7951210B2, “Support-colouring means” (Doublet Luc, priority 2004, dated 2011)

What was measured:
[1] = Inhibition of the oxidation of ABTS by NPE-hemoglobin conjugates (microtitration plate, H2O2); assay type: biochemical; settings: oxidation of ABTS 1 mM, H2O2 1 mM, sodium acetate buffer pH 5, before dialysis
Description: Bovine hemoglobin in aqueous solution (32 μM) is treated with different concentrations of 1-(2-nitrophenyl)ethyldiazoethane (NPE-diazo) in solution in DMSO at 20° C. for 1 h in darkness. The final concentration of DMSO should not exceed 5%. The NPE-diazo concentrations vary from 50 to 100 equivalents with respect to the hemoglobin. The coupling reaction is halted by addition of a 100 mM acetate buffer solution at pH 4.4 (1 equivalent with respect to NPE-diazo). The contact times vary from 10 to 30 min. The reaction mixture is subsequently dialyzed against water, between 4 and 20° C., between 1 and 16 hours, against 1000 volumes of water. The conjugate is stored at 20° C.
The percentage of inhibition of the oxidation of ABTS [diammonium salt of 2,2′-azinobis(3-ethylbenzothiazolinone-6-sulfonic acid), 1 mM] is determined before dialysis on 96-well microtitration plates (Costar, Corning Incorporated) in sodium acetate buffer, […], pH 5, in the presence of 1 mM of hydrogen peroxide. The number of molecules attached per hemoglobin molecule is determined by mass spectrometry (electrospray).

[2] = Restoration of the enzymatic activity (ABTS oxidation) after photolysis at 366 nm; assay type: biochemical; settings: after irradiating for 30 min at 366 nm; ABTS 1 mM, H2O2 1 mM
Description: The oxidation catalyst is reactivated by irradiation of the solutions of the various conjugates (1 mg/ml) in sodium acetate buffer (25 mM, pH 4.4). Photolysis takes place at 366 nm (100 W UV lamp, 7 mW/cm^2 at a distance of 30 cm); the irradiation times vary from 5 to 30 min. This stage is advantageously carried out in the presence of 5 mM of 2-ethanolamine in order to trap possible cross reactions between photolysis products and hemoglobin.
The restoration of the enzymatic activity is determined in microtitration plates as described above in the presence of ABTS (1 mM) and H2O2 (1 mM).

| Substance | Residual activity (%) [1] [%] | activity recovered after irradiation [2] [%] |
| --- | --- | --- |
| Hb-100: Bovine hemoglobin treated with 100 equivalents of 1-(2-nitrophenyl)ethyldiazoethane (NPE-diazo); NPE-hemoglobin conjugate | 2.5 | 16 |
| Hb-50: Bovine hemoglobin treated with 50 equivalents of 1-(2-nitrophenyl)ethyldiazoethane (NPE-diazo); NPE-hemoglobin conjugate | 12.6 | 57 |
| Native hemoglobin: Untreated bovine hemoglobin, oxidation catalyst used as 100% activity reference [reference compound] | 100 | – |
| Hb-75: Bovine hemoglobin treated with 75 equivalents of 1-(2-nitrophenyl)ethyldiazoethane (NPE-diazo); NPE-hemoglobin conjugate | 5.4 | 28 |
